Measurements as given in US20050142634.

Tested on: modulator of non-genomic activity of nuclear receptors (MNAR)

cSrc
cSrc enzymatic activity (acid denatured enolase as a substrate, [32P]-γATP, SDS-PAGE autoradiography): MNAR itself strongly stimulates cSrc enzymatic activity
